Test results published in article PMC4456660.

What was measured:
[1] = molecular target: Ube2S, biotinylated on an N-terminal Avi tag (human) (UniProt Q16763); assay: SPR
[2] = molecular target: UbcH10~Ub conjugate (UbcH10(C114K)-Avi conjugated with His6-tagged ubiquitin), biotinylated (human) (UniProt O00762); assay: SPR
Sequence of UbcH10~Ub conjugate (UbcH10(C114K)-Avi conjugated with His6-tagged ubiquitin), biotinylated (human) (O00762 whole entry C114K): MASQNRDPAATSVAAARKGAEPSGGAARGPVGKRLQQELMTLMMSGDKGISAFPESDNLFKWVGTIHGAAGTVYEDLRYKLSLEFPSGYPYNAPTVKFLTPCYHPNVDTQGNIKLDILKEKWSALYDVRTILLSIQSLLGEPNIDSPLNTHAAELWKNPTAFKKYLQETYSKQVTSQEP

Sequence of Ube2S, biotinylated on an N-terminal Avi tag (human) (Q16763 whole entry): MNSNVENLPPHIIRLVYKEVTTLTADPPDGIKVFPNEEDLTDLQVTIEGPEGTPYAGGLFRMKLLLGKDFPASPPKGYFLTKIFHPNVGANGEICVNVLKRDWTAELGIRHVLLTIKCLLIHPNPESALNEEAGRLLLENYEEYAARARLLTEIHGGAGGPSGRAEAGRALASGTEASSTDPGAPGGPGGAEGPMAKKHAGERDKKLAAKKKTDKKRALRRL

Kd [1] [nM]	fold higher affinity than apo APC/C [2] [fold]	Substance
300	–	apo APC/C (from UniProt Q9H1A4;Q9UJX6;P30260;Q9UJX5;Q9UJX4;Q13042;Q9UJX3;Q9UJX2;Q9UM13;Q9NYG5;Q8NHZ8;Q9BS18;P60006;Q96DE5) (complex)
200	7	APC/C^Cdh1.Hsl1 ternary complex (from UniProt Q9H1A4;Q9UJX6;P30260;Q9UJX5;Q9UJX4;Q13042;Q9UJX3;Q9UJX2;Q9UM13;Q9NYG5;Q8NHZ8;Q9BS18;P60006;Q96DE5;Q9UM11;P34244)
